In article PMC4249980:

Biological target: recombinant GST-BNIP3 protein (rat BNIP3) (rat)
Test: SDS-PAGE and Western blot; GST-BNIP3 incubated with isolated rat liver mitochondria for 1 hour at 37°C in calcium-free buffer; mitochondrial and supernatant fractions blotted with a BNIP3 antibody; 90 kD band

stoichiometry N: 2
Substance: recombinant GST-BNIP3 protein (rat BNIP3) (natural protein)
